Reference: US12674174B2, “Protoporphyrinogen oxidase (PPO) resistance plant” (PLANTARC BIO LTD., priority 2022, dated 2026)
“Also recorded” adds a separate entry of the source.

System: Arabidopsis plants
Conditions: for herbicides against which tolerance was shown: FIG. 3C, Strike, Star, Goal, Aurora tested; for High concentration herbicide tolerance: Table 1; for High concentration herbicide tolerance / Herbicide tolerance: yes/no; for Herbicide tolerance: Table 2, FIG. 6C legend: Star 1.25 kg/hectare; for rank among fungal isolated-PPO genes for growth in the presence of Strike, Star, Goal and Aurora: Strike 2.5, Star 1.25, Goal 1.15, Aurora 1.0 kg/hectare

B1: SEQ ID NO: 116: PPO from Hesseltinella sp. fused to cTP. Chimeric Protein; cloned from SEQ ID NO: 98 (protein, listed as Hesseltinella sp.)
chain: MELSLLRPTTQSLLPSFSKPNLRLNVYKPLRLRCSVAGGMPRSIVVLGGGISGLSAAYYLSRLVPQAHIRLIESNKRAGGFIKTQQVNDHLIFEAGPRTLRPHGTSGTVLLDMIKDLDLSPLLVNIPKSHPSAQHRYIEYHGQINQLPSGLADMLLHSPPIMDSVITAGMREPFLARASTTKDESLYNFMERRFNEHTALNLMGAMAHGIYAGDAKQLSVHSTFPILAACEQEYGSVVLGMLSGKLSVESPRERQLADACRAKDPEWFKQMQQSSVLGFLPGLGALPSRLTQFLSSQPNVSMQLGETVSRLDGQSSHQIEITTSQGQIYHADHIVSTLPSHALARISMPTTTSLPHLTHNPSADVALVNLAYEKCKVKPGLDGFGFLTPHADTMPPSQFPGLLGMIFDSNSLGVQDQDSNMVRFTAMIGGADWNLAFGSLHDNDAISSKALTMATAALSKYLEIHESPAHYHCRILRQCIPQYLVGHRQRMNELHAALQHSFGHTMSVTGASYLGVSVPDCIKHSRMLIEDLVDTGALGSKQAVITGLEKVTLPMYYKL
herbicides against which tolerance was shown: tolerances against Goal and Star herbicides only

B2: SEQ ID NO: 94: PPO from Penicillium sp. Protein. (protein, listed as Penicillium sp.)
chain: MRLLTASKGLRSPQKPLISAIRCQHRSYNAAVIGGGITGLTAAWQLIQDRECSSVTIYEKSRRLGGWLQSETIPVEGGEVVFEYGPRTLRSAMPASLPLLYLVSNLGLFDELITTSKRSPAALNRYIYYPDHLVRLPTPDPDLSLMENARNIFRTITTEPLFEGFITGLLSEPNKPARPQEEWAIDESLAEFITRRFNRKIADNLVSAVMHGIYADNIDEMSAQAIMGPLRNLEDGGILFGLLIKSIMGKKTRSMDDFLAVDAVYKTPETMQRLDEINRVVKTASTFTFKRGTQQLVEGLTRALRASEKVRLVMDADILALDPPANRGHKLKIYTGIRGEESFDHVISAISAPAMARILDPQGQVKIDCDPEDEYRALWNSKKARHPKPNIGTVSGLHFFRHATTVMVVNLYYKTPNLLPVDGFGYLIPRSIPYEQNPECGLGVIFASASSSGESPVAPYPKVSQDSAPGTKITIMFGGHYWDGWKKQDYPDHKTAVRMAKDMLERHLGITEPPALVRTRLQENAIPKYKPPHIHQIYALSRWAKEEYHNRLVLVGNSFSGVGVGDCVRQGIMAATHGVGRHKLTATPRLESKDWCPWKEYNYQHWDLKGGVPTAPVRLFESDI
High concentration herbicide tolerance: yes | Herbicide tolerance: yes

B3: SEQ ID NO: 96: PPO from Trichoderma sp. Protein. (protein, listed as Trichoderma sp.)
chain: MSLKRADGAAMAFLRLSSAVCGRRRIPAGGLPADANVAVLGGGLTGLTTAYYLAKWLPPTAKITLLEASDRLGGWIKTDRVPVKVGGVEGVVSFERGPRSLSSLNKSTWRFDDLVLWDLALDLGLRVVSPPDKPRYIYYPDHLVPLPPHTSLAAFASEPLVLESLWAGFGYVLRRLFSRKAGVPVQDLSIADWIQHITGSRAVAENLASAMVHGIYGGDIYTLSARSVLDRFYWVHYLPALGPDVRHMALSEQVFMEAMGQDPLIRKLAQQPRGALLNFGEAGMETLPIALADALNGQANVEVKLGAKVTGLEYESETEMMKITTTGQDDSPAEKYHKVISTLPSQHLARITDTLPSLASSHAVSIMTVNIWYPQTNLKPPGFGYLIPLSVPAEQNPERALGVFFDSDVGVRGPDEPAGTKLFVLMGGHYYDKKQPGASVRVPSEEEAIEQAKRVLERHLGIPQSTPCFAMARLASECIPQYVCGHQDTMAAADEDLRDSFDGRLAVAGGSYTKIGAMGALRNGYDIANTVVREDWLTTGLEQLEFPTQFCGVPTERIPVRRFSRR
High concentration herbicide tolerance: yes | Herbicide tolerance: yes

B4: SEQ ID NO: 97: PPO from Rhodotorula sp. Protein. (protein, listed as Rhodotorula sp.)
chain: MQSYSGNALARQSVPIKPIRRRTPRLNLIRSLPSPRFFVTSPSSSQRHDHPYHTLAILGGGLSGLSTAHYFLRTLSPSLRDQTRIVVLEKEERVGGWCRAVRIQNGRRLGENEKPEGTEDLLVFETGPRSVRPVGLLGWLTIEMAHELGLTPSIVTVPKSAPSARNRFIYTGHRSSTSISPILKAALPTIPSALLEPFRPRSPLHDDPSGLADESVDSFIARRFGRRLADELASAGIHGIYAGDTRRLSVRAVLPALWELEKEWGSVVIGALFGSFARRRGWKKNSPWRMRQQAETEEMERVKERIRAKGGEALVEDMEKASVWGVKGGLQVVTETLREKLEAEGVEFWMGEKGKVEHVEKVDGGWQIRTSSGALDASQLVTTIPQLLPSSLAPPALPATTVSVVNLAFEKPAPGSPPLHPAGFGYLIPRTVPSSLNPHRALGVIFDSDVMPDVDSSSSLGLTKLSLLLGGSYWLDRHPPPQPSHDDLVNAALETLRLHFPDRPIPKPVHAFTHTHVNCIPQVPPGFMPSFRAFGDRLREAGNVAVVGGGFAAVGVNGCVKAAWEVGSAMAQAVNAQAGGKEGEGEEKVREAVARTVKTGTEMWEL
High concentration herbicide tolerance: yes | Herbicide tolerance: yes

B5: SEQ ID NO: 103: Nicotiana tabacum protoporphyrinogen oxidase, mitochondrial, NP_001312887.1 (protein, listed as Nicotiana tabacum)
chain: MAPSAGEDKHSSAKRVAVIGAGVSGLAAAYKLKIHGLNVTVFEAEGKAGGKLRSVSQDGLIWDEGANTMTESEGDVTFLIDSLGLREKQQFPLSQNKRYIARNGTPVLLPSNPIDLIKSNFLSTGSKLQMLLEPILWKNKKLSQVSDSHESVSGFFQRHFGKEVVDYLIDPFVAGTCGGDPDSLSMHHSFPELWNLEKRFGSVILGAIRSKLSPKNEKKQGPPKTSANKKRQRGSFSFLGGMQTLTDAICKDLREDELRLNSRVLELSCSCTEDSAIDSWSIISASPHKRQSEEESFDAVIMTAPLCDVKSMKIAKRGNPFLLNFIPEVDYVPLSVVITTFKRENVKYPLEGFGVLVPSKEQQHGLKTLGTLFSSMMFPDRAPNNVYLYTTFVGGSRNRELAKASRTELKEIVTSDLKQLLGAEGEPTYVNHLYWSKAFPLYGHNYDSVLDAIDKMEKNLPGLFYAGNHRGGLSVGKALSSGCNAADLVISYLESVSTDSKRHC
High concentration herbicide tolerance: no

B6: SEQ ID NO: 115: PPO from Rhodotorula sp. fused to cTP. Chimeric Protein; cloned from SEQ ID NO: 97 (protein, listed as Rhodotorula sp.)
chain: MELSLLRPTTQSLLPSFSKPNLRLNVYKPLRLRCSVAGGMQSYSGNALARQSVPIKPIRRRTPRLNLIRSLPSPRFFVTSPSSSQRHDHPYHTLAILGGGLSGLSTAHYFLRTLSPSLRDQTRIVVLEKEERVGGWCRAVRIQNGRRLGENEKPEGTEDLLVFETGPRSVRPVGLLGWLTIEMAHELGLTPSIVTVPKSAPSARNRFIYTGHRSSTSISPILKAALPTIPSALLEPFRPRSPLHDDPSGLADESVDSFIARRFGRRLADELASAGIHGIYAGDTRRLSVRAVLPALWELEKEWGSVVIGALFGSFARRRGWKKNSPWRMRQQAETEEMERVKERIRAKGGEALVEDMEKASVWGVKGGLQVVTETLREKLEAEGVEFWMGEKGKVEHVEKVDGGWQIRTSSGALDASQLVTTIPQLLPSSLAPPALPATTVSVVNLAFEKPAPGSPPLHPAGFGYLIPRTVPSSLNPHRALGVIFDSDVMPDVDSSSSLGLTKLSLLLGGSYWLDRHPPPQPSHDDLVNAALETLRLHFPDRPIPKPVHAFTHTHVNCIPQVPPGFMPSFRAFGDRLREAGNVAVVGGGFAAVGVNGCVKAAWEVGSAMAQAVNAQAGGKEGEGEEKVREAVARTVKTGTEMWEL
rank among fungal isolated-PPO genes for growth in the presence of Strike, Star, Goal and Aurora: top 3; also recorded: top 2

B7: SEQ ID NO: 114: PPO from Trichoderma sp. fused to cTP. Chimeric Protein; cloned from SEQ ID NO: 96 (protein, listed as Trichoderma sp.)
chain: MELSLLRPTTQSLLPSFSKPNLRLNVYKPLRLRCSVAGGMSLKRADGAAMAFLRLSSAVCGRRRIPAGGLPADANVAVLGGGLTGLTTAYYLAKWLPPTAKITLLEASDRLGGWIKTDRVPVKVGGVEGVVSFERGPRSLSSLNKSTWRFDDLVLWDLALDLGLRVVSPPDKPRYIYYPDHLVPLPPHTSLAAFASEPLVLESLWAGFGYVLRRLFSRKAGVPVQDLSIADWIQHITGSRAVAENLASAMVHGIYGGDIYTLSARSVLDRFYWVHYLPALGPDVRHMALSEQVFMEAMGQDPLIRKLAQQPRGALLNFGEAGMETLPIALADALNGQANVEVKLGAKVTGLEYESETEMMKITTTGQDDSPAEKYHKVISTLPSQHLARITDTLPSLASSHAVSIMTVNIWYPQTNLKPPGFGYLIPLSVPAEQNPERALGVFFDSDVGVRGPDEPAGTKLFVLMGGHYYDKKQPGASVRVPSEEEAIEQAKRVLERHLGIPQSTPCFAMARLASECIPQYVCGHQDTMAAADEDLRDSFDGRLAVAGGSYTKIGAMGALRNGYDIANTVVREDWLTTGLEQLEFPTQFCGVPTERIPVRRFSRR
rank among fungal isolated-PPO genes for growth in the presence of Strike, Star, Goal and Aurora: top 3

B8: SEQ ID NO: 112: PPO from Penicillium sp. fused to cTP. Chimeric Protein; cloned from SEQ ID NO: 94 (protein, listed as Penicillium sp.)
chain: MELSLLRPTTQSLLPSFSKPNLRLNVYKPLRLRCSVAGGMRLLTASKGLRSPQKPLISAIRCQHRSYNAAVIGGGITGLTAAWQLIQDRECSSVTIYEKSRRLGGWLQSETIPVEGGEVVFEYGPRTLRSAMPASLPLLYLVSNLGLFDELITTSKRSPAALNRYIYYPDHLVRLPTPDPDLSLMENARNIFRTITTEPLFEGFITGLLSEPNKPARPQEEWAIDESLAEFITRRFNRKIADNLVSAVMHGIYADNIDEMSAQAIMGPLRNLEDGGILFGLLIKSIMGKKTRSMDDFLAVDAVYKTPETMQRLDEINRVVKTASTFTFKRGTQQLVEGLTRALRASEKVRLVMDADILALDPPANRGHKLKIYTGIRGEESFDHVISAISAPAMARILDPQGQVKIDCDPEDEYRALWNSKKARHPKPNIGTVSGLHFFRHATTVMVVNLYYKTPNLLPVDGFGYLIPRSIPYEQNPECGLGVIFASASSSGESPVAPYPKVSQDSAPGTKITIMFGGHYWDGWKKQDYPDHKTAVRMAKDMLERHLGITEPPALVRTRLQENAIPKYKPPHIHQIYALSRWAKEEYHNRLVLVGNSFSGVGVGDCVRQGIMAATHGVGRHKLTATPRLESKDWCPWKEYNYQHWDLKGGVPTAPVRLFESDI
herbicides against which tolerance was shown: tolerances against Goal and Star herbicides only
